Measurements taken from PMC3899018, “Biochemical and Structural Studies of Conserved Maf Proteins Revealed Nucleotide Pyrophosphatases with a Preference for Modified Nucleotides” (Chemistry & Biology, 2013).

Tests used:
Assay in all cases: pyrophosphatase-coupled Pi release assay
[1] = substrate: C[n+]1cn([C@@H]2O[C@H](COP(=O)(O)OP(=O)(O)OP(=O)(O)O)[C@@H](O)[C@H]2O)c2nc(N)[nH]c(=O)c21; type: biochemical, Escherichia coli; conditions: 2 mM Co2+, 37°C
Source text: pyrophosphatase-coupled Pi release assay on YceF

[2] = substrate: Cc1cn([C@@H]2O[C@H](COP(=O)(O)OP(=O)(O)OP(=O)(O)O)[C@@H](O)[C@H]2O)c(=O)nc1N; type: biochemical, Escherichia coli; conditions: 2 mM Co2+, 37°C
Source text: (§1) pyrophosphatase-coupled Pi release assay on YhdE

[3] = substrate: O=c1[nH]cc([C@@H]2O[C@H](COP(=O)(O)OP(=O)(O)OP(=O)(O)O)[C@@H](O)[C@H]2O)c(=O)[nH]1; type: biochemical, Escherichia coli; conditions: 2 mM Co2+, 37°C
Source text: as §1

[4] = substrate: Cc1cn([C@@H]2O[C@H](COP(=O)(O)OP(=O)(O)OP(=O)(O)O)[C@@H](O)[C@H]2O)c(=O)[nH]c1=O; type: biochemical, Escherichia coli; conditions: 2 mM Co2+, 37°C
Source text: as §1

[5] = substrate: Cc1cn([C@H]2C[C@H](O)[C@@H](COP(=O)(O)OP(=O)(O)OP(=O)(O)O)O2)c(=O)[nH]c1=O; type: biochemical, Escherichia coli; conditions: 2 mM Co2+, 37°C
Source text: as §1

[6] = substrate: C[n+]1cn([C@@H]2O[C@H](COP(=O)(O)OP(=O)(O)OP(=O)(O)O)[C@@H](O)[C@H]2O)c2nc(N)[nH]c(=O)c21; type: biochemical, Salmonella enterica; conditions: 2 mM Co2+, 37°C
Source text: pyrophosphatase-coupled Pi release assay on STM1189

[7] = substrate: O=c1[nH]cc([C@@H]2O[C@H](COP(=O)(O)OP(=O)(O)OP(=O)(O)O)[C@@H](O)[C@H]2O)c(=O)[nH]1; type: biochemical, Saccharomyces cerevisiae; conditions: 2 mM Co2+, 30°C
Source text: (§2) pyrophosphatase-coupled Pi release assay on YOR111W

[8] = substrate: Cc1cn([C@@H]2O[C@H](COP(=O)(O)OP(=O)(O)OP(=O)(O)O)[C@@H](O)[C@H]2O)c(=O)[nH]c1=O; type: biochemical, Saccharomyces cerevisiae; conditions: 2 mM Co2+, 30°C
Source text: as §2

[9] = substrate: O=c1ccn([C@@H]2O[C@H](COP(=O)(O)OP(=O)(O)OP(=O)(O)O)[C@@H](O)[C@H]2O)c(=O)[nH]1; type: biochemical, Saccharomyces cerevisiae; conditions: 2 mM Co2+, 30°C
Source text: as §2

[10] = substrate: Cc1cn([C@@H]2O[C@H](COP(=O)(O)OP(=O)(O)OP(=O)(O)O)[C@@H](O)[C@H]2O)c(=O)nc1N; type: biochemical, Bacillus subtilis; conditions: 2 mM Co2+, 30°C
Source text: (§3) pyrophosphatase-coupled Pi release assay on BSU28050

[11] = substrate: O=c1[nH]cc([C@@H]2O[C@H](COP(=O)(O)OP(=O)(O)OP(=O)(O)O)[C@@H](O)[C@H]2O)c(=O)[nH]1; type: biochemical, Bacillus subtilis; conditions: 2 mM Co2+, 30°C
Source text: as §3

[12] = substrate: Cc1cn([C@@H]2O[C@H](COP(=O)(O)OP(=O)(O)OP(=O)(O)O)[C@@H](O)[C@H]2O)c(=O)[nH]c1=O; type: biochemical, Bacillus subtilis; conditions: 2 mM Co2+, 30°C
Source text: as §3

[13] = substrate: Nc1ccn([C@@H]2O[C@H](COP(=O)(O)OP(=O)(O)OP(=O)(O)O)[C@@H](O)[C@H]2O)c(=O)n1; type: biochemical, Bacillus subtilis; conditions: 2 mM Co2+, 30°C
Source text: as §3

[14] = substrate: CNc1ccn([C@H]2C[C@H](O)[C@@H](COP(=O)(O)OP(=O)(O)OP(=O)(O)O)O2)c(=O)n1; type: biochemical, Homo sapiens; conditions: 2 mM Co2+, 37°C
Source text: (§4) pyrophosphatase-coupled Pi release assay on ASMTL-Maf

[15] = substrate: Cc1cn([C@@H]2O[C@H](COP(=O)(O)OP(=O)(O)OP(=O)(O)O)[C@@H](O)[C@H]2O)c(=O)[nH]c1=O; type: biochemical, Homo sapiens; conditions: 2 mM Co2+, 37°C
Source text: as §4

[16] = substrate: Nc1nc2c([nH]c(=O)n2[C@@H]2O[C@H](CO[P@@](=O)(O)O[P@@](=O)(O)OP(=O)(O)O)[C@@H](O)[C@H]2O)c(=O)[nH]1; type: biochemical, Homo sapiens; conditions: 2 mM Co2+, 37°C
Source text: as §4

[17] = substrate: Nc1ccn([C@@H]2O[C@H](COP(=O)(O)OP(=O)(O)OP(=O)(O)O)[C@@H](O)[C@H]2O)c(=O)n1; type: biochemical, Homo sapiens; conditions: 2 mM Co2+, 37°C
Source text: as §4

B1: YceF (Escherichia coli K-12) (protein)
chain: MPKLILASTSPWRRALLEKLQISFECAAPEVDETPRSDESPRQLVLRLAQEKAQSLASRYPDHLIIGSDQVCVLDGEITGKPLTEENARLQLRKASGNIVTFYTGLALFNSANGHLQTEVEPFDVHFRHLSEAEIDNYVRKEHPLHCAGSFKSEGFGITLFERLEGRDPNTLVGLPLIALCQMLRREGKNPLMG
notes: full-length recombinant, expressed in E. coli; mixture of monomers and dimers
Km [1]: 32.8 ± 3.1 µM | kcat [1]: 1.2 ± 0.1 s⁻¹ | kcat/Km [1]: 37000 M⁻¹ s⁻¹

B2: YhdE (Escherichia coli K-12) (protein)
chain: MTSLYLASGSPRRQELLAQLGVTFERIVTGIEEQRQPQESAQQYVVRLAREKARAGVAQTAKDLPVLGADTIVILNGEVLEKPRDAEHAAQMLRKLSGQTHQVMTAVALADSQHILDCLVVTDVTFRTLTDEDIAGYVASDEPLDKAGAYGIQGLGGCFVRKINGSYHAVVGLPLVETYELLSNFNALREKRDKHDG
notes: full-length recombinant, expressed in E. coli; predicted monomer mass 24 kDa; mixture of dimers and tetramers
Km [2]: 44.8 ± 2.2 µM | kcat [2]: 9.2 ± 0.2 s⁻¹ | kcat/Km [2]: 210000 M⁻¹ s⁻¹ | Km [3]: 47.2 ± 1.5 µM | kcat [3]: 10.5 ± 0.2 s⁻¹ | kcat/Km [3]: 220000 M⁻¹ s⁻¹ | Km [4]: 32.0 ± 2.2 µM | kcat [4]: 18.2 ± 0.7 s⁻¹ | kcat/Km [4]: 570000 M⁻¹ s⁻¹ | Km [5]: 53.0 ± 2.0 µM | kcat [5]: 15.4 ± 0.3 s⁻¹ | kcat/Km [5]: 290000 M⁻¹ s⁻¹

B3: STM1189 (Salmonella enterica subsp. enterica serovar Typhimurium str. LT2) (protein)
chain: MPRLILASTSPWRRALLEKLTIPFECAAPDVDETPMPGEAPRQLVLRLAQAKAQSLAARFPNHLIIGSDQICVLDGEITGKPLTEEKARQQLAKASGNIVTFYTGLALYNSASGHLQTEVEPFDVHFRHLSEAEIDDYVRKEHPLHCAGSFKSEGLGIALFERLEGRDPNTLIGLPLIALCQMLRREGFNPLQQ
notes: full-length recombinant, expressed in E. coli
Km [6]: 30.9 ± 1.2 µM | kcat [6]: 1.5 ± 0.1 s⁻¹ | kcat/Km [6]: 49000 M⁻¹ s⁻¹

B4: YOR111W (Saccharomyces cerevisiae S288C) (protein)
chain: MSGNSQLPPDVIGFICSKYDIILASTSPRRYEILHDIMGITDLKTMVSTFEENLDKMNYSTDPIGYVCDTSWHKAQNIIEILTDYEDENPNEIDKPKLIICADTIIIDKSGRIYEKPKTKEVQKKFLMKFCYEDDEPVNVVTAVTLIKWYGRENFELVPFRDETKVYFDNKIPLRILEEYVESGDGLEVGGGFKIQGQGAILIEKIEGDYYNVVGLPLNKTFKGLYAEANSI
notes: as for B3
Km [7]: 20 ± 0.4 µM | kcat [7]: 5.3 ± 0.1 s⁻¹ | kcat/Km [7]: 270000 M⁻¹ s⁻¹ | Km [8]: 13.0 ± 0.3 µM | kcat [8]: 2.2 ± 0.1 s⁻¹ | kcat/Km [8]: 170000 M⁻¹ s⁻¹ | Km [9]: 29.7 ± 1.4 µM | kcat [9]: 2.6 ± 0.1 s⁻¹ | kcat/Km [9]: 88000 M⁻¹ s⁻¹

B5: BSU28050 (Bacillus subtilis subsp. subtilis str. 168) (protein)
chain: MTKPLILASQSPRRKELLDLLQLPYSIIVSEVEEKLNRNFSPEENVQWLAKQKAKAVADLHPHAIVIGADTMVCLDGECLGKPQDQEEAASMLRRLSGRSHSVITAVSIQAENHSETFYDKTEVAFWSLSEEEIWTYIETKEPMDKAGAYGIQGRGALFVKKIDGDYYSVMGLPISKTMRALRHFDIRA
notes: full-length recombinant, expressed in E. coli; dimer
Km [10]: 7.8 ± 0.2 µM | kcat [10]: 8.5 ± 0.1 s⁻¹ | kcat/Km [10]: 1.1e+06 M⁻¹ s⁻¹ | Km [11]: 5.7 ± 0.3 µM | kcat [11]: 7.2 ± 0.2 s⁻¹ | kcat/Km [11]: 1.3e+06 M⁻¹ s⁻¹ | Km [12]: 4.7 ± 0.2 µM | kcat [12]: 2.4 ± 0.1 s⁻¹ | kcat/Km [12]: 510000 M⁻¹ s⁻¹ | Km [13]: 25.0 ± 0.8 µM | kcat [13]: 7.1 ± 0.1 s⁻¹ | kcat/Km [13]: 280000 M⁻¹ s⁻¹

B6: ASMTL-Maf (Homo sapiens) (protein)
chain: MVLCPVIGKLLHKRVVLASASPRRQEILSNAGLRFEVVPSKFKEKLDKASFATPYGYAMETAKQKALEVANRLYQKDLRAPDVVIGADTIVTVGGLILEKPVDKQDAYRMLSRLSGREHSVFTGVAIVHCSSKDHQLDTRVSEFYEETKVKFSELSEELLWEYVHSGEPMDKAGGYGIQALGGMLVESVHGDFLNVVGFPLNHFCKQLVKLYYPPRPEDLRRSVKHDSIPAADTFEDLS
notes: N-terminal Maf domain, residues 1-239, recombinant from E. coli; dimer
Km [14]: 10.3 ± 0.7 µM | kcat [14]: 0.3 ± 0.01 s⁻¹ | kcat/Km [14]: 29000 M⁻¹ s⁻¹ | Km [15]: 16.1 ± 1.5 µM | kcat [15]: 1.5 ± 0.1 s⁻¹ | kcat/Km [15]: 93000 M⁻¹ s⁻¹ | Km [16]: 10.7 ± 0.6 µM | kcat [16]: 0.2 ± 0.01 s⁻¹ | kcat/Km [16]: 19000 M⁻¹ s⁻¹ | Km [17]: 17.4 ± 0.8 µM | kcat [17]: 0.8 ± 0.02 s⁻¹ | kcat/Km [17]: 46000 M⁻¹ s⁻¹
